# In US4285932A, “Enzyme derivatives for use in the treatment of venous thrombosis” (Beecham Group Limited, priority 1978, dated 1981):
# B1: p-Anisoyl: porcine plasmin, active site serine blocked by p-anisoyl; porcine column of Table 1 (protein, UniProt P06867 20-579; P06867 580-809, looked up)
# Plasmin heavy chain A: DSLDDYVNTQGAFLFSLSRKQVAARSVEECAAKCEAETNFICRAFQYHSKDQQCVVMAENSKTSPIARMRDVVLFEKRIYLSECKTGNGKNYRGTTSKTKSGVICQKWSVSSPHIPKYSPEKFPLAGLEENYCRNPDNDEKGPWCYTTDPETRFDYCDIPECEDECMHCSGEHYEGKISKTMSGIECQSWGSQSPHAHGYLPSKFPNKNLKMNYCRNPDGEPRPWCFTTDPNKRWEFCDIPRCTTPPPTSGPTYQCLKGRGENYRGTVSVTASGHTCQRWSAQSPHKHNRTPENFPCKNLEENYCRNPDGETAPWCYTTDSEVRWDYCKIPSCGSSTTSTEYLDAPVPPEQTPVAQDCYRGNGESYRGTSSTTITGRKCQSWVSMTPHRHEKTPGNFPNAGLTMNYCRNPDADKSPWCYTTDPRVRWEYCNLKKCSETEQQVTNFPAIAQVPSVEDLSEDCMFGNGKRYRGKRATTVAGVPCQEWAAQEPHRHSIFTPETNPRAGLEKNYCRNPDGDDNGPWCYTTNPQKLFDYCDVPQCVTSSFDCGKPKVEPKKCPAR
# Plasmin light chain B: VVGGCVSIPHSWPWQISLRHRYGGHFCGGTLISPEWVLTAKHCLEKSSSPSSYKVILGAHEEYHLGEGVQEIDVSKLFKEPSEADIALLKLSSPAIITDKVIPACLPTPNYVVADRTACYITGWGETKGTYGAGLLKEARLPVIENKVCNRYEYLGGKVSPNELCAGHLAGGIDSCQGDSGGPLVCFEKDKYILQGVTSWGLGCALPNKPGVYVRVSRFVTWIEEIMRRN
# modifications: plasmin p-anisoyl acylated active site
# B2: 3 Methyl 4-methoxybenzoyl: human plasmin, active site serine blocked by 3-methyl-4-methoxybenzoyl (acylating agent of Example 17) (protein, UniProt P00747 20-580; P00747 581-810, looked up)
# Plasmin heavy chain A: EPLDDYVNTQGASLFSVTKKQLGAGSIEECAAKCEEDEEFTCRAFQYHSKEQQCVIMAENRKSSIIIRMRDVVLFEKKVYLSECKTGNGKNYRGTMSKTKNGITCQKWSSTSPHRPRFSPATHPSEGLEENYCRNPDNDPQGPWCYTTDPEKRYDYCDILECEEECMHCSGENYDGKISKTMSGLECQAWDSQSPHAHGYIPSKFPNKNLKKNYCRNPDRELRPWCFTTDPNKRWELCDIPRCTTPPPSSGPTYQCLKGTGENYRGNVAVTVSGHTCQHWSAQTPHTHNRTPENFPCKNLDENYCRNPDGKRAPWCHTTNSQVRWEYCKIPSCDSSPVSTEQLAPTAPPELTPVVQDCYHGDGQSYRGTSSTTTTGKKCQSWSSMTPHRHQKTPENYPNAGLTMNYCRNPDADKGPWCFTTDPSVRWEYCNLKKCSGTEASVVAPPPVVLLPDVETPSEEDCMFGNGKGYRGKRATTVTGTPCQDWAAQEPHRHSIFTPETNPRAGLEKNYCRNPDGDVGGPWCYTTNPRKLYDYCDVPQCAAPSFDCGKPQVEPKKCPGR
# Plasmin light chain B: VVGGCVAHPHSWPWQVSLRTRFGMHFCGGTLISPEWVLTAAHCLEKSPRPSSYKVILGAHQEVNLEPHVQEIEVSRLFLEPTRKDIALLKLSSPAVITDKVIPACLPSPNYVVADRTECFITGWGETQGTFGAGLLKEAQLPVIENKVCNRYEFLNGRVQSTELCAGHLAGGTDSCQGDSGGPLVCFEKDKYILQGVTSWGLGCARPNKPGVYVRVSRFVTWIEGVMRNN
# modifications: plasmin 3-methyl-4-methoxybenzoyl acylated active site
# B3: p-Ethoxybenzoyl: human plasmin, active site serine blocked by p-ethoxybenzoyl (acylating agent of Example 8) (protein, UniProt P00747 20-580; P00747 581-810, looked up)
# Plasmin heavy chain A: B2 Plasmin heavy chain A
# Plasmin light chain B: B2 Plasmin light chain B
# modifications: plasmin p-ethoxybenzoyl acylated active site
# B4: 2,4 Dimethoxybenzoyl: human plasmin, active site serine blocked by 2,4-dimethoxybenzoyl (acylating agent of Example 6) (protein, UniProt P00747 20-580; P00747 581-810, looked up)
# Plasmin heavy chain A: B2 Plasmin heavy chain A
# Plasmin light chain B: B2 Plasmin light chain B
# modifications: plasmin 2,4-dimethoxybenzoyl acylated active site
# B5: O-Toloyl: human plasmin, active site serine blocked by o-toluoyl (acylating agent of Example 9) (protein, UniProt P00747 20-580; P00747 581-810, looked up)
# Plasmin heavy chain A: B2 Plasmin heavy chain A
# Plasmin light chain B: B2 Plasmin light chain B
# modifications: plasmin o-toluoyl acylated active site
# B6: p-Fluorobenzoyl: porcine plasmin, active site serine blocked by p-fluorobenzoyl (protein, UniProt P06867 20-579; P06867 580-809, looked up)
# Plasmin heavy chain A: B1 Plasmin heavy chain A
# Plasmin light chain B: B1 Plasmin light chain B
# modifications: plasmin p-fluorobenzoyl acylated active site
# B7: p-Methyl-t-cinnamoyl: porcine plasmin, active site serine blocked by p-methyl-trans-cinnamoyl (protein, UniProt P06867 20-579; P06867 580-809, looked up)
# Plasmin heavy chain A: B1 Plasmin heavy chain A
# Plasmin light chain B: B1 Plasmin light chain B
# modifications: plasmin p-methyl-trans-cinnamoyl acylated active site
# Test system: Human Plasmin
# Experiment: Deacylation (hydrolysis) of active-site blocked human plasmin, pseudo-first order rate constant followed by regain of activity on chromogenic substrate S-2251
# Type: biochemical
# Conditions: active site serine substituted human plasmin; pH 7.4, 37° C.
# Description: (§1) The pseudo-first order rate constant is determined by hydrolysing the enzyme derivative under physiological conditions i.e. in isotonic aqueous media at pH 7.4 and at 37° C. At regular intervals aliquots are withdrawn and incubated with a chromogenic or fluorogenic protease substrate such as S-2251 (H-D-Val-Leu-Lys-p-nitroanilide 2HCl) and the rate of conversion of the substrate measured.
# (§2) The hydrolysis is followed until such time as the rate of conversion of substrate reaches a maximum. The rate constant k is then calculated by plotting: […]
# (§3) loge (1-^At /Amax) against t
# (§4) where Amax the maximum rate at which an aliquot converts substrate and At is the rate at which an aliquot converts substrate at time t.
row,Molecule,"Deacylation rate, Human Plasmin K sec^-1 × 10^4"
1,B1,1.10 sec^-1 × 10^4
2,B2,0.70 sec^-1 × 10^4
3,B3,1.10 sec^-1 × 10^4
4,B4,1.10 sec^-1 × 10^4
5,B5,1.71 sec^-1 × 10^4

# Test system: Porcine Plasmin
# Experiment: Deacylation (hydrolysis) of active-site blocked porcine plasmin, pseudo-first order rate constant followed by regain of activity on chromogenic substrate
# Type: biochemical
# Conditions: active site serine substituted porcine plasmin; pH 7.4, 37° C.
# Description: as §1, §2, §3, §4
row,Molecule,"Deacylation rate, Porcine Plasmin K sec^-1 × 10^4"
1,B6,3.30 sec^-1 × 10^4
2,B7,2.92 sec^-1 × 10^4
3,B1,0.33 sec^-1 × 10^4

# Test system: streptokinase-human plasminogen activator complex
# Experiment: Deacylation of acylated streptokinase-human plasminogen activator complex to free enzyme
# Type: biochemical
# Conditions: acyl-activator complex solution; 37° C.
# Description: as §1, §2, §3, §4
row,Molecule,pseudo-first order (deacylation) rate constant of regeneration to free enzyme
1,3-Methyl p-Anisoyl Streptokinase-human Plasminogen Activator Complex [Example 23],0.0001 s⁻¹
2,p-Anisoyl Streptokinase-Human Plasminogen Activator Complex [Example 22],0.00027 s⁻¹
